Reference: US10494439 (dated 2019)

What was measured:
[1] = molecular target: Y436T; assay: SPR
[2] = molecular target: GLD52; assay: SPR

Kd [1]: 1.95 nM
Kd [2]: 2.44 nM
Binder: GQNDTSQTSSPS [CD52 peptide 741]
